Reference: patent US20110166062A1 (INDIANA UNIVERSITY RESEARCH AND TECHNOLOGY, published 2011)
Bridges are numbered along the chain shown (N, C = ends). Where no end group is shown, it is not given here.

B1: mt-141 (peptide)
peptide: YSQGTFTSDYSKYMDEQAAKEFVNWLLAGGPSSGAPPPS-NH2
modifications: lactam 16-20; N-terminus assumed
SMILES: CSCC[C@H](NC(=O)[C@H](Cc1ccc(O)cc1)NC(=O)[C@H](CCCCN)NC(=O)[C@H](CO)NC(=O)[C@H](Cc1ccc(O)cc1)NC(=O)[C@H](CC(=O)O)NC(=O)[C@H](CO)NC(=O)[C@@H](NC(=O)[C@H](Cc1ccccc1)NC(=O)[C@@H](NC(=O)CNC(=O)[C@H](CCC(N)=O)NC(=O)[C@H](CO)NC(=O)[C@@H](N)Cc1ccc(O)cc1)[C@@H](C)O)[C@@H](C)O)C(=O)N[C@@H](CC(=O)O)C(=O)N[C@H]1CCC(=O)NCCCC[C@@H](C(=O)N[C@@H](CCC(=O)O)C(=O)N[C@@H](Cc2ccccc2)C(=O)N[C@H](C(=O)N[C@@H](CC(N)=O)C(=O)N[C@@H](Cc2c[nH]c3ccccc23)C(=O)N[C@@H](CC(C)C)C(=O)N[C@@H](CC(C)C)C(=O)N[C@@H](C)C(=O)NCC(=O)NCC(=O)N2CCC[C@H]2C(=O)N[C@@H](CO)C(=O)N[C@@H](CO)C(=O)NCC(=O)N[C@@H](C)C(=O)N2CCC[C@H]2C(=O)N2CCC[C@H]2C(=O)N2CCC[C@H]2C(=O)N[C@@H](CO)C(N)=O)C(C)C)NC(=O)[C@H](C)NC(=O)[C@H](C)NC(=O)[C@H](CCC(N)=O)NC1=O
B2: mt-140 (peptide)
peptide: YSQGTFTSDYSIYLDEQAAKEFVNWLLAGGPSSGAPPPS-NH2
modifications: lactam 16-20; N-terminus assumed
SMILES: CC[C@H](C)[C@H](NC(=O)[C@H](CO)NC(=O)[C@H](Cc1ccc(O)cc1)NC(=O)[C@H](CC(=O)O)NC(=O)[C@H](CO)NC(=O)[C@@H](NC(=O)[C@H](Cc1ccccc1)NC(=O)[C@@H](NC(=O)CNC(=O)[C@H](CCC(N)=O)NC(=O)[C@H](CO)NC(=O)[C@@H](N)Cc1ccc(O)cc1)[C@@H](C)O)[C@@H](C)O)C(=O)N[C@@H](Cc1ccc(O)cc1)C(=O)N[C@@H](CC(C)C)C(=O)N[C@@H](CC(=O)O)C(=O)N[C@H]1CCC(=O)NCCCC[C@@H](C(=O)N[C@@H](CCC(=O)O)C(=O)N[C@@H](Cc2ccccc2)C(=O)N[C@H](C(=O)N[C@@H](CC(N)=O)C(=O)N[C@@H](Cc2c[nH]c3ccccc23)C(=O)N[C@@H](CC(C)C)C(=O)N[C@@H](CC(C)C)C(=O)N[C@@H](C)C(=O)NCC(=O)NCC(=O)N2CCC[C@H]2C(=O)N[C@@H](CO)C(=O)N[C@@H](CO)C(=O)NCC(=O)N[C@@H](C)C(=O)N2CCC[C@H]2C(=O)N2CCC[C@H]2C(=O)N2CCC[C@H]2C(=O)N[C@@H](CO)C(N)=O)C(C)C)NC(=O)[C@H](C)NC(=O)[C@H](C)NC(=O)[C@H](CCC(N)=O)NC1=O
B3: mt-143 (peptide)
peptide: YSQGTFTSDYSKYLDERRAKEFVNWLLAGGPSSGAPPPS-NH2
modifications: lactam 16-20; N-terminus assumed
SMILES: CC(C)C[C@H](NC(=O)[C@H](CC(C)C)NC(=O)[C@H](Cc1c[nH]c2ccccc12)NC(=O)[C@H](CC(N)=O)NC(=O)[C@@H](NC(=O)[C@H](Cc1ccccc1)NC(=O)[C@H](CCC(=O)O)NC(=O)[C@@H]1CCCCNC(=O)CC[C@H](NC(=O)[C@H](CC(=O)O)NC(=O)[C@H](CC(C)C)NC(=O)[C@H](Cc2ccc(O)cc2)NC(=O)[C@H](CCCCN)NC(=O)[C@H](CO)NC(=O)[C@H](Cc2ccc(O)cc2)NC(=O)[C@H](CC(=O)O)NC(=O)[C@H](CO)NC(=O)[C@@H](NC(=O)[C@H](Cc2ccccc2)NC(=O)[C@@H](NC(=O)CNC(=O)[C@H](CCC(N)=O)NC(=O)[C@H](CO)NC(=O)[C@@H](N)Cc2ccc(O)cc2)[C@@H](C)O)[C@@H](C)O)C(=O)N[C@@H](CCCNC(=N)N)C(=O)N[C@@H](CCCNC(=N)N)C(=O)N[C@@H](C)C(=O)N1)C(C)C)C(=O)N[C@@H](C)C(=O)NCC(=O)NCC(=O)N1CCC[C@H]1C(=O)N[C@@H](CO)C(=O)N[C@@H](CO)C(=O)NCC(=O)N[C@@H](C)C(=O)N1CCC[C@H]1C(=O)N1CCC[C@H]1C(=O)N1CCC[C@H]1C(=O)N[C@@H](CO)C(N)=O
B4: mt-128 (peptide)
peptide: HSQGTFTSDYSKYLDEIHQKDFIAWLMNGGPSSGAPPPS-NH2
modifications: lactam 16-20; N-terminus assumed
SMILES: CC[C@H](C)[C@H](NC(=O)[C@H](Cc1ccccc1)NC(=O)[C@H](CC(=O)O)NC(=O)[C@@H]1CCCCNC(=O)CC[C@H](NC(=O)[C@H](CC(=O)O)NC(=O)[C@H](CC(C)C)NC(=O)[C@H](Cc2ccc(O)cc2)NC(=O)[C@H](CCCCN)NC(=O)[C@H](CO)NC(=O)[C@H](Cc2ccc(O)cc2)NC(=O)[C@H](CC(=O)O)NC(=O)[C@H](CO)NC(=O)[C@@H](NC(=O)[C@H](Cc2ccccc2)NC(=O)[C@@H](NC(=O)CNC(=O)[C@H](CCC(N)=O)NC(=O)[C@H](CO)NC(=O)[C@@H](N)Cc2c[nH]cn2)[C@@H](C)O)[C@@H](C)O)C(=O)N[C@@H]([C@@H](C)CC)C(=O)N[C@@H](Cc2c[nH]cn2)C(=O)N[C@@H](CCC(N)=O)C(=O)N1)C(=O)N[C@@H](C)C(=O)N[C@@H](Cc1c[nH]c2ccccc12)C(=O)N[C@@H](CC(C)C)C(=O)N[C@@H](CCSC)C(=O)N[C@@H](CC(N)=O)C(=O)NCC(=O)NCC(=O)N1CCC[C@H]1C(=O)N[C@@H](CO)C(=O)N[C@@H](CO)C(=O)NCC(=O)N[C@@H](C)C(=O)N1CCC[C@H]1C(=O)N1CCC[C@H]1C(=O)N1CCC[C@H]1C(=O)N[C@@H](CO)C(N)=O
B5: mt-144 (peptide)
peptide: YAQGTFTSDYSIYMDEQAAKEFVNWLLAGGPSSGAPPPS-NH2
modifications: lactam 16-20; N-terminus assumed
SMILES: CC[C@H](C)[C@H](NC(=O)[C@H](CO)NC(=O)[C@H](Cc1ccc(O)cc1)NC(=O)[C@H](CC(=O)O)NC(=O)[C@H](CO)NC(=O)[C@@H](NC(=O)[C@H](Cc1ccccc1)NC(=O)[C@@H](NC(=O)CNC(=O)[C@H](CCC(N)=O)NC(=O)[C@H](C)NC(=O)[C@@H](N)Cc1ccc(O)cc1)[C@@H](C)O)[C@@H](C)O)C(=O)N[C@@H](Cc1ccc(O)cc1)C(=O)N[C@@H](CCSC)C(=O)N[C@@H](CC(=O)O)C(=O)N[C@H]1CCC(=O)NCCCC[C@@H](C(=O)N[C@@H](CCC(=O)O)C(=O)N[C@@H](Cc2ccccc2)C(=O)N[C@H](C(=O)N[C@@H](CC(N)=O)C(=O)N[C@@H](Cc2c[nH]c3ccccc23)C(=O)N[C@@H](CC(C)C)C(=O)N[C@@H](CC(C)C)C(=O)N[C@@H](C)C(=O)NCC(=O)NCC(=O)N2CCC[C@H]2C(=O)N[C@@H](CO)C(=O)N[C@@H](CO)C(=O)NCC(=O)N[C@@H](C)C(=O)N2CCC[C@H]2C(=O)N2CCC[C@H]2C(=O)N2CCC[C@H]2C(=O)N[C@@H](CO)C(N)=O)C(C)C)NC(=O)[C@H](C)NC(=O)[C@H](C)NC(=O)[C@H](CCC(N)=O)NC1=O
B6: mt-129 (peptide)
peptide: YSQGTFTSDYSKYLDEIHQKDFIAWLMNGGPSSGAPPPS-NH2
modifications: lactam 16-20; N-terminus assumed
SMILES: CC[C@H](C)[C@H](NC(=O)[C@H](Cc1ccccc1)NC(=O)[C@H](CC(=O)O)NC(=O)[C@@H]1CCCCNC(=O)CC[C@H](NC(=O)[C@H](CC(=O)O)NC(=O)[C@H](CC(C)C)NC(=O)[C@H](Cc2ccc(O)cc2)NC(=O)[C@H](CCCCN)NC(=O)[C@H](CO)NC(=O)[C@H](Cc2ccc(O)cc2)NC(=O)[C@H](CC(=O)O)NC(=O)[C@H](CO)NC(=O)[C@@H](NC(=O)[C@H](Cc2ccccc2)NC(=O)[C@@H](NC(=O)CNC(=O)[C@H](CCC(N)=O)NC(=O)[C@H](CO)NC(=O)[C@@H](N)Cc2ccc(O)cc2)[C@@H](C)O)[C@@H](C)O)C(=O)N[C@@H]([C@@H](C)CC)C(=O)N[C@@H](Cc2c[nH]cn2)C(=O)N[C@@H](CCC(N)=O)C(=O)N1)C(=O)N[C@@H](C)C(=O)N[C@@H](Cc1c[nH]c2ccccc12)C(=O)N[C@@H](CC(C)C)C(=O)N[C@@H](CCSC)C(=O)N[C@@H](CC(N)=O)C(=O)NCC(=O)NCC(=O)N1CCC[C@H]1C(=O)N[C@@H](CO)C(=O)N[C@@H](CO)C(=O)NCC(=O)N[C@@H](C)C(=O)N1CCC[C@H]1C(=O)N1CCC[C@H]1C(=O)N1CCC[C@H]1C(=O)N[C@@H](CO)C(N)=O

Target: GLP-1 receptor (UniProt P43220 24-463, limits assumed)
Experiment: cell-based or functional assay

Row | Binder | EC50 | relative activity
1 | B1 | 160 pM | 36.8%
2 | B2 | 68 pM | 49.6%
3 | B3 | 1480 pM | 4.53%
4 | B4 | 120 pM | 33.3%
5 | B5 | 36 pM | 142%
6 | B6 | 4070 pM | 1.12%

Target: T1, GIP receptor (UniProt P48546 22-466)
T1 sequence (looked up): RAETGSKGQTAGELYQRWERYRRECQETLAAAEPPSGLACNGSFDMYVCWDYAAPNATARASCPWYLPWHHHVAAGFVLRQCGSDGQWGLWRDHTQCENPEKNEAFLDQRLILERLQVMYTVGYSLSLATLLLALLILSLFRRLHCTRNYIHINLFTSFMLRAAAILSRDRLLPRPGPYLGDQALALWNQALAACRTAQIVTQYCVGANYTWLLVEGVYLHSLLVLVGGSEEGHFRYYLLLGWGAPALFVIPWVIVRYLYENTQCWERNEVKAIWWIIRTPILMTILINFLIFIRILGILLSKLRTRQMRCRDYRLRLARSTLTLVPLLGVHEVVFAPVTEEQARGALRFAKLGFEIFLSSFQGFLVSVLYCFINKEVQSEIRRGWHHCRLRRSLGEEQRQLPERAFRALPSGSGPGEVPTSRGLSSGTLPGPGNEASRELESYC
Experiment: cell-based or functional assay

Row | Binder | EC50 | relative activity
7 | B1 | 747 pM | 10%
8 | B2 | 366 pM | 12.8%
9 | B3 | 2640 pM | 1.82%
10 | B4 | 14600 pM | 0.42%
11 | B5 | 480 pM | 18.5%
12 | B6 | 2880 pM | 2.06%

Target: glucagon receptor (UniProt P47871 26-477, limits assumed)
Sequence (P47871 26-477 limits assumed): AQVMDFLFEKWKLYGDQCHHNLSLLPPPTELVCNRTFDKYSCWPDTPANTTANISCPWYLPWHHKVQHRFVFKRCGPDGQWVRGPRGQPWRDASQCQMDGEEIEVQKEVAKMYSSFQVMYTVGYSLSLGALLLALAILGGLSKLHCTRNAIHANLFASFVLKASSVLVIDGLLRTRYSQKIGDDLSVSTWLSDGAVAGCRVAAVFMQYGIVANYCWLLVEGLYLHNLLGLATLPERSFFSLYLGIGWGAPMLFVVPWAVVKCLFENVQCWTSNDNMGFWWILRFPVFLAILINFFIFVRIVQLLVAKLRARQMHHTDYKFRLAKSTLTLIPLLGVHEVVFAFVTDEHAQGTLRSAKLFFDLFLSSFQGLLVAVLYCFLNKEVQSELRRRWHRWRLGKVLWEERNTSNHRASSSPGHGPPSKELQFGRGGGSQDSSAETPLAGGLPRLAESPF
Experiment: cell-based or functional assay

Row | Binder | EC50 | relative activity
13 | B1 | 150 pM | 269%
14 | B2 | 149 pM | 131%
15 | B3 | 86 pM | 497%
16 | B4 | 773 pM | 11.1%
17 | B5 | 2270 pM | 16.8%
18 | B6 | 952 pM | 17.3%
